The record followed here is article doi:10.1101/805184 (bioRxiv, 2019).

Sequences and labels used below:
B1: Arp9 (natural protein)
chain: MAPFRQDSILIIYPRSQTTLVQFGLNEETFTVPELEIPTQIYRTTRQDGSYTYHSTNKDNKAELIKPIQNGEIIDISAFTQFLRLIFVSILSDRANKNQDAFEAELSNIPLLLITHHSWSQSDLEIITQYVFESLEINNLIQLPASLAATYSMISLQNCCIIDVGTHHTDIIPIVDYAQLDHLVSSIPMGGQSINDSLKKLLPQWDDDQIESLKKSPIFEVLSDDAKKLSSFDFGNENEDEDEGTLNVAEIITSGRDTREVLEERERGQKVKNVKNSDLEFNTFWDEKGNEIKVGKQRFQGCNNLIKNISNRVGLTLDNIDDINKAKAVWENIIIVGGTTSISGFKEALLGQLLKDHLIIEPEEEKSKREEEAKSVLPAATKKKSKFMTNSTAFVPTIEYVQCPTVIKLAKYPDYFPEWKKSGYSEIIFLGAQIVSKQIFTHPKDTFYITREKYNMKGPAALWDVQF
B2: Arp7 (natural protein)
chain: MTLNRKCVVIHNGSHRTVAGFSNVELPQCIIPSSYIKRTDEGGEAEFIFGTYNMIDAAAEKRNGDEVYTLVDSQGLPYNWDALEMQWRYLYDTQLKVSPEELPLVITMPATNGKPDMAILERYYELAFDKLNVPVFQIVIEPLAIALSMGKSSAFVIDIGASGCNVTPIIDGIVVKNAVVRSKFGGDFLDFQVHERLAPLIKEENDMENMADEQKRSTDVWYEASTWIQQFKSTMLQVSEKDLFELERYYKEQADIYAKQQEQLKQMDQQLQYTALTGSPNNPLVQKKNFLFKPLNKTLTLDLKECYQFAEYLFKPQLISDKFSPEDGLGPLMAKSVKKAGASINSMKANTSTNPNGLGTSHINTNVGDNNSTASSSNISPEQVYSLLLTNVIITGSTSLIEGMEQRIIKELSIRFPQYKLTTFANQVMMDRKIQGWLGALTMANLPSWSLGKWYSKEDYETLKRDRKQSQATNATN
B3: Swi1 (natural protein)
chain: MDFFNLNNNNNNNNTTTTTTTTNNNNTNNNNTNNNNNPANNTNNNNSTGHSSNTNNNTNNNNTNTGASGVDDFQNFFDPKPFDQNLDSNNNNSNSNNNDNNNSNTVASSTNFTSPTAVVNNAAPANVTGGKAANFIQNQSPQFNSPYDSNNSNTNLNSLSPQAILAKNSIIDSSNLPLQAQQQLYGGNNNNNSTGIANDNVITPHFITNVQSISQNSSSSTPNTNSNSTPNANQQFLPFNNSASNNGNLTSNQLISNYAASNSMDRSSSASNEFVPNTSDNNNNSNNHNMRNNSNNKTSNNNNVTAVPAATPANTNNSTSNANTVFSERAAMFAALQQKQQQRFQALQQQQQQQQNQQQQNQQPQQQQQQQQNPKFLQSQRQQQQRSILQSLNPALQEKISTELNNKQYELFMKSLIENCKKRNMPLQSIPEIGNRKINLFYLYMLVQKFGGADQVTRTQQWSMVAQRLQISDYQQLESIYFRILLPYERHMISQEGIKETQAKRIFLQQFLQELLKKVQQQQQAAALANANNNINSASSAPTPAAPGASVPATAAPGTEAGIVPVSANTPKSLNSNININVNNNNIGQQQVKKPRKQRVKKKTKKELELERKEREDFQKRQQKLLEDQQRQQKLLLETKLRQQYEIELKKLPKVYKRSIVRNYKPLINRLKHYNGYDINYISKIGEKIDSNKPIFLFAPELGAINLHALSMSLQSKNLGEINTALNTLLVTSADSNLKISLVKYPELLDSLAILGMNLLSNLSQNVVPYHRNTSDYYYEDAGSNQYYVTQHDKMVDKIFEKVNNNATLTPNDSNDEKVTILVDSLTGNQLPTPTPTEMEPDLDTECFISMQSTSPAVKQWDLLPEPIRFLPNQFPLKIHRTPYLTSLKKIKDEIDDPFTKINTRGAEDPKVLINDQLSTISMILRNISFSDNNSRIMSRNFYLKRFISDLLWLVLIHPENFTCNRKILNFKKDLVIVLSNISHLLEIASSIDCLLILILVISFGQPKLNPMASSSSFGSESLTFNEFQLQWGKYQTFGVDILAKLFSLEKPNLNYFKSILLNKNTGNNLYDRNSNNNHKDKKLLRRLLNLYNDNNKNNNNRHNLLNDVVSFLFSAIPLQQVLSQSADPSLLIDQFSPVISQSLTSILVIVQKILPLSNEVFEISENNSDSNSNNNGNKDSSFNFNKNLPFVWLSSEENIGSGLLKLSEIILNINNSTSKNTLLQQQNYSKVLLPSINISCVQLIKCLVEKSICFENCLNNDPEILKKIASIPNLFPTDLEIFQLFTNPSVDIQIINQYQLLYNLKNDILTNLE

The target in the assay is Snf2 (S. cerevisiae, UniProt P22082 1-1703). Description: cryo-EM structure.
Sequence of Snf2 (P22082 whole entry): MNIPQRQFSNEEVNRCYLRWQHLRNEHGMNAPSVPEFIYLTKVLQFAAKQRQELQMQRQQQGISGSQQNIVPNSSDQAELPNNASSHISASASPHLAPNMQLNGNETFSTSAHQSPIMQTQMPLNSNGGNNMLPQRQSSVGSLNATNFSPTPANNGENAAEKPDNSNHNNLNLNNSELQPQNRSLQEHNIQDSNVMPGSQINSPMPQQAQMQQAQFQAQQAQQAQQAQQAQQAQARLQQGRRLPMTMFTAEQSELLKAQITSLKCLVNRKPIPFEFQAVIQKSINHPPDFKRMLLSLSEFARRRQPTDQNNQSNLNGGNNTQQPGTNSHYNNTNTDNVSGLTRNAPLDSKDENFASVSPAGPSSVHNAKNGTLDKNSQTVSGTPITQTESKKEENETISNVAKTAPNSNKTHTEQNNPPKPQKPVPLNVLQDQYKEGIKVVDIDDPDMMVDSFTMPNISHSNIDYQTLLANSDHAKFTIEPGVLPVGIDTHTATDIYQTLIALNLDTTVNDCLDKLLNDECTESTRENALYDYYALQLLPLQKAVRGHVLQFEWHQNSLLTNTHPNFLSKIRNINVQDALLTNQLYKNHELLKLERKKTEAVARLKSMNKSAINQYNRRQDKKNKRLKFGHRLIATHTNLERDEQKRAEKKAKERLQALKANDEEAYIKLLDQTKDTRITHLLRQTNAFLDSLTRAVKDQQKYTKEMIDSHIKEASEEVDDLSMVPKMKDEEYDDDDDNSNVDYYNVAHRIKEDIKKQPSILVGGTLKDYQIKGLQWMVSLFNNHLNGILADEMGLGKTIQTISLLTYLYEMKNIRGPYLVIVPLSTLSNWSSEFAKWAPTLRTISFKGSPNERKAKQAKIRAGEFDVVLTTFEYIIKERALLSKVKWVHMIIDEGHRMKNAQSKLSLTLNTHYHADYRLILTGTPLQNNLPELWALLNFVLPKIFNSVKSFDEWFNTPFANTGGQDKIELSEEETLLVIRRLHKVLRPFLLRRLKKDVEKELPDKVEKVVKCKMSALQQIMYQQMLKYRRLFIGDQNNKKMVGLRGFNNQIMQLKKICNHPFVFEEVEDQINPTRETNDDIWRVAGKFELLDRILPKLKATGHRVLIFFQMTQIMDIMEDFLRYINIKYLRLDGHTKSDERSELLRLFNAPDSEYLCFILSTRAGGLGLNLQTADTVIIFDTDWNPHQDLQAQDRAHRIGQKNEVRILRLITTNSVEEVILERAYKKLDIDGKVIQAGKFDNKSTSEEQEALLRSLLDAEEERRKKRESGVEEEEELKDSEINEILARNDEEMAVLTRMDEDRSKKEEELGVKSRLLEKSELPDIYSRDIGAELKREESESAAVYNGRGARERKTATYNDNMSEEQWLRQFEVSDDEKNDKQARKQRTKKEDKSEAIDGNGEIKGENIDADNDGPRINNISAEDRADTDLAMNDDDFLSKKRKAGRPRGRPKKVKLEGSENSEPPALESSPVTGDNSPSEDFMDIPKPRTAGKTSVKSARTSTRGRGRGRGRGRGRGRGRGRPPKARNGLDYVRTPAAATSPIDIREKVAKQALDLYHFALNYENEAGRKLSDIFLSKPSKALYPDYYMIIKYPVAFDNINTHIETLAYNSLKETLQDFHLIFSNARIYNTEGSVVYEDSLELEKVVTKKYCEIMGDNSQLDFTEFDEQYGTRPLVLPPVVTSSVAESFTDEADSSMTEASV
As for B1, the binding result is given as “binds”.

With B2, the binding result is given as “binds”.

B3: the binding result was “binds”.
